Source: article PMC8458453

Molecular target: human Rab7 Q67L (residues 2–195), GTP-loaded (human) (UniProt P51149)
Assay: crystal structure; purified PDZD8 CC and Rab7 Q67L (1 mM GTP) mixed 1:1 at total 10 mg/ml, incubated 1 h at room temperature; crystals in 0.1 M Tris-HCl pH 8.0, 25% PEG 1000, 0.1 M NaCl; space group P6(5), 2.1 Å

Sequence of human PDZD8 C-terminal coiled-coil (CC) domain, residues 994–1123 (crystallisation construct) (Q8NEN9 994-1123): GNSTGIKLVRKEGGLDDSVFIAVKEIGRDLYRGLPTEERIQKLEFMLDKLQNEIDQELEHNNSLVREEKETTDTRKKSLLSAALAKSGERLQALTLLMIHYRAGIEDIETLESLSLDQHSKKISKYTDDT
Sequence of human Rab7 Q67L (residues 2–195), GTP-loaded (human) (P51149 2-195 Q67L): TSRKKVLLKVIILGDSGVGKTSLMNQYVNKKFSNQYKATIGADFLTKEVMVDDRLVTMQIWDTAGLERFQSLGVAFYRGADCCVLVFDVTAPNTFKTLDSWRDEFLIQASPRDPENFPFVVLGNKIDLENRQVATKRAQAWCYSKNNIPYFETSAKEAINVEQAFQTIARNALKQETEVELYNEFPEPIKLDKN

human PDZD8 C-terminal coiled-coil (CC) domain, residues 994–1123 (crystallisation construct) (from UniProt Q8NEN9 994-1123) (domain or fragment)
stoichiometry N (Rab7 per PDZD8 CC): 2
